Measured values reported in patent US20190315864A1 (SUZHOU ALPHAMAB, published 2019).

Legend:
CTLA4-Fc fusion protein [1] = biological target: T1, CTLA4-Fc fusion protein (human, biotinylated where used as CTLA4-Fc-Biotin (Examples 5.1-5.3)); test: ELISA, CTLA4-Fc coated, 10 ng VHH/well
T1 construct: expressed in HEK293 cells; also called human CTLA4-Fc protein; CTLA4-Fc antigen protein
Protocol: (§1) Plates were coated with CTLA4-Fc fusion protein overnight at 4° C. and 10 ng of the heavy chain single-domain antibody obtained in Example 2.1 (the control was a single domain antibody not binding to the CTLA4-Fc protein) was added to each well and allowed to react for 1 hour at room temperature. After washing, primary antibody anti-His tag antibody (purchased from Beijing Kangwei Century Biotechnology Co., Ltd.) was added and reacted for 1 hour at room temperature. After washing, a secondary goat anti-mouse horseradish peroxidase-labeled antibody (Yiqiao Shenzhou, Cat: SSA007200) was added and reacted for 1 hour at room temperature. After washing, chromogenic agent was added and the absorbance was read at 405 nm.

CTLA4-Fc fusion protein [2] = biological target: T1, CTLA4-Fc fusion protein; test: ELISA OD ratio, value equals OD(CTLA4)/OD(blank)
Protocol: as §1

CTLA4-Fc fusion protein [3] = biological target: T1, CTLA4-Fc fusion protein; test: competitive ELISA: CD80-Fc-Biotin signal on coated CTLA4-Fc with 500 ng VHH/well; competitor CD80-Fc-Biotin
Protocol: SA-HRP (purchased from Sigma) was added and allowed to react for 1 hour at room temperature. After adding chromogenic solution, absorbance was read at 405 nm wavelength.

CTLA4-Fc fusion protein [4] = biological target: T1, CTLA4-Fc fusion protein; test: ELISA OD ratio, value equals OD(CTLA4)/OD(Fc)
Protocol: as §1
(§2) Plates were coated with Fc protein overnight at 4° C. and 10 ng of the heavy chain single domain antibody obtained in Example 2.1 was added to each well (control was a single domain antibody against other unrelated targets) and allowed to react for 1 hour at room temperature. After washing, an rabbit anti-human Fc antibody (purchased from Shanghai Pu Xin Biotechnology Co., Ltd.) was added and reacted for 1 hour at room temperature. After washing, goat anti-rabbit horseradish peroxidase labeled antibody (purchased from Shanghai Pu Xin Biotechnology Co., Ltd.) was added and reacted at room temperature for 1 hour. After washing, chromogenic agent was added and the absorbance was read at 405 nm.

Fc protein = biological target: T2, Fc protein; test: ELISA, Fc protein coated, 10 ng VHH/well
T2 construct: Counter-screen for the Fc part of CTLA4-Fc
Protocol: as §2

OD (against CTLA4) (CTLA4-Fc fusion protein [1]) | ODa/ODb (CTLA4-Fc fusion protein [2]) | OD (CTLA4-Fc fusion protein [3]) | ODa/OD blank (CTLA4-Fc fusion protein [4]) | OD (against Fc) (Fc protein) | Binder
1.09 OD405 | 38.8 | 0.94 OD405 | 24.1 | 0.045 OD405 | CTLA4 heavy chain single domain antibody No. J42 (VHH, Camel VHH expressed in E. coli (PET32b), nickel-purified) VHH: QVQLQESGGGSVQAGGSLRLSCAASGYTYSSYNSNCMGWFRQAPGKEREGVAAIDSDGSTSYADSVKGRFTISKDNAKNTLYLQMNSLKPEDTAMYYCAASPRTCEVFSLGGSWHLFGYWGQGTQVTVSS
1.75 OD405 | 62.4 | 2.13 OD405 | 41.6 | 0.042 OD405 | CTLA4 heavy chain single domain antibody No. J39 (VHH, Camel VHH expressed in E. coli (PET32b), nickel-purified) VHH: QVQLQESGGGSVQAGGSLRLSCAPSRYSGALMGWFRQAPGKEREGVAVISRSGLTTYYADSVKGRFTISQDTAKNTIYLQMNSMKPEDTAMYYCVAAPEARAWSSRDPTGYNYWGQGTQVTVSS
1.02 OD405 | 36.5 | 2.28 OD405 | 22.7 | 0.045 OD405 | CTLA4 heavy chain single domain antibody No. C38 (VHH, Camel VHH expressed in E. coli (PET32b), nickel-purified) VHH: QVQLQESGGGSVQAGGSLRLSCAASRYTASSNCMAWFRQAPGKEREGVATIYNGGGSTAYADSVKGRFTISQDNAKNTVYLQMNSLKPEDTAMYYCGAGSPRFCASATMTGGHHLFGYWGQGTQVTVSS
1.2 OD405 | 42.9 | 1.06 OD405 | 35.3 | 0.034 OD405 | CTLA4 heavy chain single domain antibody No. J37 (VHH, Camel VHH expressed in E. coli (PET32b), nickel-purified) VHH: QVQLQESGGGSVQAGGTLRLSCAVSGVTYSPHCMGWFRQAPGKEREGVAAIYNGGGSTAYADSVKGRFTISQDNAKNTVYLQMNSLKPEDTAMYYCGAGSPRFCASATMTGGHHLFGYWGQGTQVTVSS
1.79 OD405 | 63.8 | 1.89 OD405 | 33.7 | 0.053 OD405 | CTLA4 heavy chain single domain antibody No. C16 (VHH, Camel VHH expressed in E. coli (PET32b), nickel-purified) VHH: QVQLQESGGGSVQAGGSLTLSCAASGYTGDLVAWFRQTPGKEREGVAAISRTGLTTYYADSVKGRFTISQDTAKNTGYLQMNSMKPEDTAMYYCVAGWHVGGTWYKTSSYDYWGQGTQVTVSS
0.537 OD405 | 19.2 | 2.53 OD405 | 14.5 | 0.037 OD405 | CTLA4 heavy chain single domain antibody No. 119 (VHH, Camel VHH expressed in E. coli (PET32b), nickel-purified) VHH: QVQLQESGGGSVQAGGSLRLSCAASEYTYHTNCMGWFRQAPGKEREGLAVMNPSGGVTYFADSVKGRFTISRDNAKNTVYLQMNSLKPEDTAMYYCAAGRGRCSGYSGYYNEWGQGTQVTVSS
1.4 OD405 | 50 | 2.53 OD405 | 30.4 | 0.046 OD405 | CTLA4 heavy chain single domain antibody No. J17 (VHH, Camel VHH expressed in E. coli (PET32b), nickel-purified) VHH: QVQLQESGGGSVQAGGSLRLSCAASGFTLSSYTMTWLRQAPGKGLEWVSTINSGGSTSYADSVKGRFAISRDNAKNILYLQLNSLEIEDTGMYYCQGGLTQRGQGTQVTVSS
1.44 OD405 | 51.4 | 2.5 OD405 | 40 | 0.036 OD405 | CTLA4 heavy chain single domain antibody No. J29 (VHH, Camel VHH expressed in E. coli (PET32b), nickel-purified) VHH: QVQLQESGGGLVQPGGSLRLSCAASGFTISSYTMTWLHQAPGKGLEWVSTINSGGSTAYADSVKGRFAISRDNAKNTLYLQLNSLKIEDTGMYYCQGGLTQRGQGTQVTVSS
0.823 OD405 | 29.4 | 2.57 OD405 | 22.9 | 0.036 OD405 | CTLA4 heavy chain single domain antibody No. J35 (VHH, Camel VHH expressed in E. coli (PET32b), nickel-purified) VHH: QVQLQESGGGSVQAGGSLRLSCAASGYTSGYYVMGWYRQAPGKLREFVSSIDSNGGTMYADSVKGRFTISQDNAKNTAHLQMNSLKPEDTAMYYCKRDSPGNFYWGQGTQVTVSS
1.51 OD405 | 54 | 2.43 OD405 | 17.8 | 0.085 OD405 | CTLA4 heavy chain single domain antibody No. C29 (VHH, Camel VHH expressed in E. coli (PET32b), nickel-purified) VHH: QVQLQESGGGSVQAGGSLRLSCAVSGYTYSGYCMGWFRQAPGKEREGVAAISRGDGSPGYADSVKGRFTISQDNAKNTLYLQMNSLKPEDTAMYYCAADVIPTETCSYGSWSGPNGYWGQGTQVTVSS
1.21 OD405 | 43.4 | 1.84 OD405 | 23.8 | 0.051 OD405 | CTLA4 heavy chain single domain antibody No. 165 (VHH, Camel VHH expressed in E. coli (PET32b), nickel-purified) VHH: QVQLQESGGGSVQTGGSLRLSCVVSGHSYSRKCMGWFRQAPGKEREEVATFYTGDGRTYYADSVKGRFTISQDNAKNTLYLQMNSLKPEDTGMYFCAADRRVNCDLLQSTFYNYRGQGTQVTVSS
1.23 OD405 | 44 | 2.52 OD405 | 35.2 | 0.035 OD405 | CTLA4 heavy chain single domain antibody No. C2 (VHH, Camel VHH expressed in E. coli (PET32b), nickel-purified) VHH: QVQLQESGGGSVQPGGSLRLSCAVSGFTFSGYCMAWVRQAPGKGLEWVASIHRRDGSTDYADSVKGRFTISKDNSKNTLYLQMSSLKPEDTAVYYCAADPARLSCSGRVNSEYKYRGQGTQVTVSS
1.21 OD405 | 43.2 | 2.5 OD405 | 33.6 | 0.036 OD405 | CTLA4 heavy chain single domain antibody No. J5 (VHH, Camel VHH expressed in E. coli (PET32b), nickel-purified) VHH: QVQLQESGGGSVQAGGSLRLSCAASGYTYSTYCMAWFRQVPEKERERVASIYTGGGTTYYADSVKGRFTISLDNAKNTLYLQMNSLKPEDTAMYYCAKSAARCDSSRDVNRLGYWGQGTQVTVSS
1.27 OD405 | 45.3 | 0.893 OD405 | 35.2 | 0.036 OD405 | CTLA4 heavy chain single domain antibody No. 128 (VHH, Camel VHH expressed in E. coli (PET32b), nickel-purified) VHH: QVQLQESGGGSVQAGGSLKLSCAASGYTDYTYNTSCMGWFRQTPGKERERVATVNKVGSTIYADSVKGRFTISKDNVKNTLYLQMNSLKPEDTAMYYCAARGSWSCSQFWGDFGYWGQGTQVTVSS
1.84 OD405 | 65.8 | 1.92 OD405 | 45 | 0.041 OD405 | CTLA4 heavy chain single domain antibody No. 138 (VHH, Camel VHH expressed in E. coli (PET32b), nickel-purified) VHH: QVQLQESGGGSVQAGGSLTLSCAASGYANSNTCMGWFRQAPGKERERVAAISGVGTGTYYADSVKGRFTISRDNGKNTLFLQMNSLKPEDTAMYYCAAAPEGRAWCSRDPSGYNYWGQGTQVTVSS
0.635 OD405 | 22.7 | 2.34 OD405 | 17.2 | 0.037 OD405 | CTLA4 heavy chain single domain antibody No. J69 (VHH, Camel VHH expressed in E. coli (PET32b), nickel-purified) VHH: QVQLQESGGGLVQPGGSLRLSCAASGFTLSSYSMTWLRQAPGKGLEWVSTINSGGSTSYADSVKGRFAISRDNAKNTLYLQLNSLEIEDTGMYYCQGGLTRGQGTQVTVSS
0.234 OD405 | 8.4 | 2.58 OD405 | 5.1 | 0.046 OD405 | CTLA4 heavy chain single domain antibody No. 116 (VHH, Camel VHH expressed in E. coli (PET32b), nickel-purified) VHH: QVQLQESGGGLVQPGGSLRLSCEASGFTFSSYTMTWLRQAPGKGLEWVSTINSGGSTSYADSVKGRFAISRDNAKNTLYLQLNSLEIEDTGMYYCQGGLTRGQGTQVTVSS
0.848 OD405 | 30.3 | 2.47 OD405 | 14.1 | 0.06 OD405 | CTLA4 heavy chain single domain antibody No. C22 (VHH, Camel VHH expressed in E. coli (PET32b), nickel-purified) VHH: QVQLQESGGGSVQAGGSLRLSCTVSQHTSRYYYMAWFRQAPGKEREGVASIWTGGGTPGYADSAKGRFTISTDNAKNTIYLQMNSLKPEDTAMYYCAADDRGGRWSLGTMAVGGYKYWGQGTQVTVSS
0.632 OD405 | 22.6 | 2.41 OD405 | 5.2 | 0.121 OD405 | CTLA4 heavy chain single domain antibody No. J78 (VHH, Camel VHH expressed in E. coli (PET32b), nickel-purified) VHH: QVQLQESGGGSVQAGGSLRLSCTVSQHTSRYYYMAWFRQAPGKEREGVASIWTGGGTPGYADSAKGRFTISADNAKNTIYLQMNSLKPEDTAMYYCAADDRGGRWSLGTMAVGGYKYWGQGTQVTVSS
